Measured values taken from patent publication US11142588B2, “Polypeptides which bind C-X-C chemokine receptor type 4 (CXCR4) and methods of treating or reducing the risk of fibrosis and cancer” (AdAlta Limited, priority 2015, dated 2021).
Values joined by “and” are separate entries in the source; they are usually repeats but may differ in a detail not shown here. Identical values can stand only once. Values belong to the molecule of their own block, whether it stands above or below them.

Assays:
[1] = cited from earlier work; for bleomycin induced pulmonary fibrosis: Xu et al 2007
Ramos tumor cells = assay: Apoptosis assay (annexin V / propidium iodide flow cytometry); format: cell-based, human; conditions: annexin V and propidium iodide double positive, 24 or 72 hours
Experimental: The ability of an i-body of the invention to induce apoptosis in Ramos tumor cells (a human Burkitt's lymphoma cell line) was examined in an apoptosis assay according to the methods as described in Mishra M et al (2011) J Cell Mol Med 15(11):2462-77. I-bodies were incubated with Ramos cells and examined by flow cytometry after 24 or 72 hours. The cells were stained for annexin V and propidium iodide which are classic markers for apoptosis. Cells which were double positive were assessed to have become apoptotic.

CXCR4 = CXCR4 (Homo sapiens, UniProt P61073); assay: β-arrestin BRET assay, antagonist mode with 100 nM SDF-1; format: cell-based; parameters: expressed in transfected cells; host or cells: HEK293FT; conditions: for β-arrestin activity: various concentrations
CXCR4, sequence (P61073 whole entry): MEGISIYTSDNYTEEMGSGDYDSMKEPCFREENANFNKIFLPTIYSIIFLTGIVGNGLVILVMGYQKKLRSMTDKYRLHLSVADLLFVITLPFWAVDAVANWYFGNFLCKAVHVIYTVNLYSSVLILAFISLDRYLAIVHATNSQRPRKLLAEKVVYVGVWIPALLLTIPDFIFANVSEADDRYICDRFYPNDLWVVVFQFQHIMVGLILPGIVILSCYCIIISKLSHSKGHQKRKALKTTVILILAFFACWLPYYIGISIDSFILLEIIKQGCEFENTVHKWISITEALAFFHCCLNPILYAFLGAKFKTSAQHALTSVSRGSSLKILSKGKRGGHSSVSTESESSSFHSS
Description: (FIGS. 3A-3F and 14) BRET was used in this study to assess the real-time kinetic profiles resulting from any consequent increase in proximity, building upon the previously validated monitoring of GPCR/β-arrestin interactions utilizing BRET. BRET occurs between a complementary Renilla luciferase (Rluc) variant as donor and green fluorescent protein variant as acceptor. Upon Rluc-catalyzed oxidation of the coelenterazine substrate (such as coelenterazine h for first generation BRET (BRET) or EnduRen for extended BRET (eBRET), energy is transferred to the acceptor if within 10 nm, resulting in acceptor light emission peaking at a characteristic wavelength. BRET (3-arrestin assays were carried out as described previously (See, H. B., Seeber, R. M., Kocan, M., Eidne, K. A. and Pfleger, K. D. (2011) ‘Application of G protein-coupled receptor-heteromer identification technology to monitor beta-arrestin recruitment to G protein-coupled receptor heteromers’, Assay Drug Dev Technol, 9(1), 21-30, 10.1089/adt.2010.0336). CXCR4/Rluc8 cDNA constructs were generated from plasmids containing the respective receptor cDNA tagged with Rluc kindly provided by Aron Chakera (Oxford University, United Kingdom). The β-arrestin 2/Venus cDNA construct was prepared previously from pCS2-Venus kindly provided by Atsushi Miyawaki (RIKEN Brain Science Institute, Wako-city, Japan). BRET technology in cells transiently expressing CXCR4/Rluc8 and β-arrestin2/Venus in the presence of 100 nM SDF-1 agonist was evaluated in the presence of the CXCR4 agonist SDF-1/CXCL12 and the i-bodies. HEK293FT cells were maintained at 37° C., 5% CO2 in Complete Media (Dulbecco's modified Eagle's medium containing 0.3 mg/mL glutamine, 100 IU/mL penicillin, and […] streptomycin; Gibco) supplemented with 10% fetal calf serum (FCS) and […] Geneticin (Gibco). Transfections were carried out 24 h after seeding using Genejuice (Novagen) according to manufacturer's instructions. Cells were harvested with 0.05% Trypsin-EDTA (Gibco). HEK293FT cells were transfected using FuGene6 (Promega). 5 μM coelenterazine h (Promega) in HBSS was used as the luciferase substrate solution. Cells were harvested 24 h post-transfection in HEPES-buffered phenol red-free Complete Medium containing 5% FCS and added to a poly-L-lysine-coated white 96-well plate (Nunc). Dose-response curves were generated using BRET, with medium in the plate being replaced with PBS containing […] coelenterazine h (Molecular Probes) and assays carried out immediately. For these assays, 48 h post-transfection, the plate was incubated at […], 5% CO2 for 2 h with […] EnduRen (Promega) to ensure substrate equilibrium was reached. All BRET measurements were taken at 37° C. using the VICTOR Light plate reader with Wallac 1420 software (PerkinElmer). Filtered light emissions were sequentially measured at 400-475 and 520-540 nm. The BRET signal was calculated by subtracting the ratio of 520-540 nm emission over 400-475 nm emission for a vehicle-treated cell sample from the same ratio for a second aliquot of the same cells treated with agonist (in this instance in the presence of SDF-1 or CXCL12) and i-body (ADCX-99, ADCX-272, ACDX-6, ACDX-306, ADCX-668) at various concentrations. Data are mean±S.E.M. of four independent experiments carried out in duplicate.
Binding of the i-bodies to CXCR4 were examined in a β-Arrestin BRET assay as described in See, Heng B et al (2011) Assay and Drug Development Technologies 9(1):21-30. The i-bodes were examined at ten concentrations with and without 100 nM SDF-1 with the addition of ‘vehicle’ and ‘SDF-1+vehicle’ controls in order to characterise if the i-bodies are agonist or antagonists of CXCR4 activity.

[2] = mouse, in vivo, iv, 2 mg/kg
[3] = target: T1, human CXCR4 (CXCR4 positive lipoparticles) (Homo sapiens, UniProt P61073); assay: Biacore SPR kinetic binding to immobilised CXCR4 lipoparticles
T1 construct: purchased Integral Molecular LEV-101B
T1 sequence (P61073 whole entry): as above
Experimental: (FIGS. 2A-2C, 5A-5C, 11A-11D, 17A-17B) Kinetic binding analysis of selected i-bodies with immobilized CXCR4 lipoparticles were performed at 25° C. using Biacore T200 instrument (GE Healthcare, Uppsala, Sweden). Streptavidin immobilization was performed in 1×HBS-P+ running buffer (10 mM HEPES, 150 mM NaCl, 0.05% [v/v] Tween-20). […] All binding experiments involving lipoparticles were performed with 1×HBS/BSA (10 mM HEPES, 150 mM NaCl, 1 mg/mL BSA) as instrument running buffer. […] In order to determine binding kinetics, serial dilutions (three-fold) of i-bodies diluted in 1×HBS/BSA were injected over immobilized lipoparticles with the association and dissociation phases monitored for 60 sec and 600 sec, respectively. A control measurement of the instrument running buffer (“zero-buffer” blank) solution was also included for double referencing purposes. Collected experimental data were processed using Scrubber software (www.biologic.com.au). Kinetic parameters (ka=association and kd=dissociation rate constants) and equilibrium dissociation constant (KD=kd/ka) were derived by fitting each set of experimental data to a Langmuir 1:1 binding model. All interaction measurements were performed in triplicate and the derived binding parameters reported as averaged values±standard deviation.

CCL2 and CCL5 protein = assay: CCL2, CCL5, CXCL12 ELISA of fibroblast conditioned supernatants; format: cell-based, human; conditions: 48 hours
Description: Various reports indicate that CXCR4 signals in conjunction with other chemokine receptors, including CCR2.

[4] = CXCR4 expressed on lipoparticles (Table 4)

Molecule: c1cnc(NCc2ccc(CNc3ncccn3)cc2)nc1 [MSX-122]
development of pulmonary fibrosis in irradiated mice ([1]; Shu et al 2013): significant reductions in development of pulmonary fibrosis
bleomycin induced pulmonary fibrosis [1]: completely preventing bleomycin-induced lung fibrosis

Molecule: C/C=C(/C)C(=O)O[C@H]1C(C)=C2[C@H]([C@@H]1OC(=O)CCCCCCC)[C@@](C)(OC(C)=O)C[C@H](OC(=O)CCC)[C@@]1(O)[C@H]2OC(=O)[C@@]1(C)O [Thapsigargin, reference compound]
induction of apoptosis in Ramos cells (Ramos tumor cells): expected level of apoptosis

Molecule: TN14003
bleomycin induced pulmonary fibrosis [1]: blocks development of pulmonary fibrosis

β-arrestin activity (CXCR4): some degree of inhibition
B1: ADCX-6: CXCR4 binding i-body, SEQ ID NO: 17 (protein)
chain: LQVDIVPSQGEISVGESKFFLCQVAGLTSLEGISWFSPNGEKLTPNQQRISVVWNDDSSSTLTIYNANIDDAGIYKCVVEDHPQYSKMEEATVNVKIFQ
modifications: protein sequence encoding ADCX-6

B2: AM3-114-Im7-FH-SA21: dual specificity i-body, AM3-114 with 18-residue HSA binding peptide SA21, SEQ ID NO: 80 (protein)
chain: MALQVDIVPSQGEISVGESKFFLCQVAGSLSGIRISWFSPNGEKLTPNQQRISVVWNDDSSSTLTIYNANIDDAGIYKCVVWRTGGYRHRYLVLGEATVNVKIFQGGGGSELKNSISDYTEAEFVQLLKEIEKENVAATDDVLDVLLEHFVKITEHPDGTDLIYYPSDNRDDSPEGIVKEIKEWRAANGKPGFKQGGGGGSDYKDDDDKGSGHHHHHHHHGGGGSRLIEDICLPRWGCLWEDD
modifications: protein sequence encoding AM3-114-Im7-FH-SA21 dual specificity ibody
AUC0-T [2]: 25266 ng·h/mL
Auc0-∞ [2]: 25544 ng·h/mL
C0 [2]: 23284 ng/mL
ClTOT [2]: 1.3049 mL/min/kg
Thalf [2]: 0.95 h
Tlast [2]: 6.00 h
VD [2]: 0.107571 L/kg
λZ [2]: 0.7279 h⁻¹

β-arrestin activity (CXCR4): some degree of inhibition
B3: ADCX-668: CXCR4 binding i-body, SEQ ID NO: 26 (protein)
chain: LQVDIVPSQGEISVGESKFFLCQVAGTIWYEQISWFTPNGEKLTPNQQRISVVWNDDSSSTLTIYNANIDDAGIYKCVVWTRPVTSSMHEATVNVKIFQ
modifications: protein sequence encoding ADCX-668

β-arrestin activity (CXCR4): some degree of inhibition
B4: ADCX-306: CXCR4 binding i-body, SEQ ID NO: 29 (protein)
chain: LQVDIVPSQGEISVGESKFFLCQVAGFQEWVNWFSPNGEKLTPNQQRISVVWNDDSSSTLTIYNANIDDAGIYKCVVTMPHTLNNLDVRTEATVNVKIFQ
modifications: protein sequence encoding ADCX306

dissociation rate constant (kd) ([3]; off-rate, CXCR4 expressed on lipoparticles (Table 3)): 0.00817
IC50 in β-Arrestin BRET assay (Antagonist mode in the presence of 100 nM SDF-1) (CXCR4; only an order of magnitude is printed in the cell): ~uM
B5: AM3-920: affinity matured CXCR4 i-body, SEQ ID NO: 44 (protein)
chain: LQVDIVPSQGEISVGESKFFLCQVAGSGSGIRISWFSPNGEKLTPNQQRISVVWNDDSSSTLTIYNANIDDAGIYKCVVWRTGGYRHRYLVLGEATVNVKIFQ
modifications: protein sequence encoding AM3-920
Ka [3, 4]: 1.117e+06 M⁻¹ s⁻¹ and 1.26e+06 M⁻¹ s⁻¹
dissociation rate constant (kd) [3, 4]: 8020 M⁻¹ s⁻¹ and 7410 M⁻¹ s⁻¹

B6: 21H5-6H: control iBody 21H5 with 6 His tag (protein)
chain: LQVDIVPSQGEISVGESKFFLCQVAGDAKDKDISWFSPNGEKLTPNQQRISVVWNDDSSSTLTIYNANIDDAGIYKCVVTGSDAMSNYSYPISESEATVNVKIFQ
CCL5 levels in IPF lung fibroblasts (CCL2 and CCL5 protein): observed in one slow-IPF lung fibroblast line

B7: AM3-523-6H: AM3-523 with 6 His tag, containing the N-terminal sequence EAEA (protein)
chain: EAEALQVDIVPSQGEISVGESKFFLCQVAGSGSHMRISWFSPNGEKLTPNQQRISVVWNDDSSSTLTIYNANIDDAGIYKCVVWRVGGYRHRALVLGEATVNVKIFQ
modifications: left off: small tags and cut ends
induction of apoptosis in Ramos cells (Ramos tumor cells): strongly induce apoptosis
